According to patent CN112111006A:
Where a chain is given by its changes, count along the chain named.

B1: P32蛋白单克隆抗体,细胞株编号701 (antibody, V domains shown)
VH: QSAPGLVQASQCLSITCTVSGFSLTTYAVHWVRQPPGQGLEWQGVIWSGGRTDYNAAFMCRLSISKDNSNSQDFFKMNSLQADDTAIYYCARNYYGGSLDYWGQGTTLTVSS
VL: DIVLTQTPASLAVSLGQRATISSRASNSVSTSRYSYMHWNQQKPGQPPRLLIYLVSNLESGVPARFSGSGSGTDFTLNIHPVEEEDAATYYCQHIRELTFGGGTKLEIK
B2: P32蛋白单克隆抗体,细胞株编号901 (antibody, V domains shown)
VH: QVQLNQSGPGLVQPSQSLSITCTLSGFSLTTYAVHWVRQSPGKGLEWLGVIWIGGRTDYNAAFISRLSISKDNSKSQVFFEMNSLQPNDTAIYYCARNYYGGSFDYWGQGTTLTVS
VL: B1 VL with T7S, S23Y, A25D, N27K, R33G

Tests used:
[1] = target: 牛结节性皮肤病病毒(LSDV) P32蛋白,原核表达,去掉C端跨膜区 (Lumpy skin disease virus (LSDV)); test: ELISA of the ascites-purified monoclonal antibody on P32
[2] = target: 牛结节性皮肤病病毒(LSDV) P32蛋白,原核表达,去掉C端跨膜区 (Lumpy skin disease virus (LSDV))

| Binder | ELISA效价 (titer (1:dilution)) [1] | 检测限 [2] [ng/mL] |
| --- | --- | --- |
| B1 | > 128000 | 10 |
| B2 | > 128000 | 10 |
